Tested on: peptide library, one residue held at a place counted from the Y acceptor
Experiment: relative phosphorylation of the sub-library (ratio to the mean residue at this position); higher = residue favoured
Procedure, shortened: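 Biotinylated Tyr-centred peptide library mixtures, each fixing one residue at one position from −5 to +5, were incubated with purified recombinant kinases in 384-well plates for 90 min with 50 μM ATP plus γ-32P-ATP. Streptavidin membranes captured the peptides, which were rinsed and quantified by phosphorimaging and ImageQuant. At each position, intensities were divided by the sum of the 18 randomized residues (16 for the Ser/Thr-free library) and multiplied by that number. Each value is phosphorylation relative to the mean randomized residue.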

ROS1, construct: aa1883-end, human, sequence (P08922 1883-2347, looked up): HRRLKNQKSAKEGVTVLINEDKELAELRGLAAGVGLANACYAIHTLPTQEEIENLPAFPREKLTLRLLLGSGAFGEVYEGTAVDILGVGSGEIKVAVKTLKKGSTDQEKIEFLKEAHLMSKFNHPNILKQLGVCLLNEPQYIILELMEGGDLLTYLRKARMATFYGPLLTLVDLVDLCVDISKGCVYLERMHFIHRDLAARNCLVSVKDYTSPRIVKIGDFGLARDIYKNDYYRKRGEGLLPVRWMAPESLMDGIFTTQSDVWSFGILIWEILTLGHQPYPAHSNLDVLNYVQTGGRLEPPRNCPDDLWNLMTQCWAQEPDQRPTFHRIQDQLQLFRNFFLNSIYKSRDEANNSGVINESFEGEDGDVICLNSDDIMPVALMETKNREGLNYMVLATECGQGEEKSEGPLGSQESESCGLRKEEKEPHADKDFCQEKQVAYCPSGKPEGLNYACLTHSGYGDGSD
SRMS, construct: aa221-486, human, sequence (Q9H3Y6 221-486, looked up): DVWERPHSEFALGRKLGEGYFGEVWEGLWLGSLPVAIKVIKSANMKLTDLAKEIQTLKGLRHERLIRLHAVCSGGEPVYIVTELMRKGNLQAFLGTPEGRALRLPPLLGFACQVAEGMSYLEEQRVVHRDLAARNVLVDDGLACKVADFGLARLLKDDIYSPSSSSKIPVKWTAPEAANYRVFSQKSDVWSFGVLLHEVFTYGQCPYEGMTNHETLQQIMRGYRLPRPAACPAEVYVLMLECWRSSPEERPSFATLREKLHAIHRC

ROS1, construct: aa1883-end, human (from UniProt P08922)
relative phosphorylation
Details | at +1 | at +2 | at +3 | at +4 | at +5 | at -1 | at -2 | at -3 | at -4 | at -5
A fixed | 1.4 | 0.764 | 0.709 | 0.96 | 0.93 | 1.04 | 1.06 | 0.892 | 1.22 | 1.17
D fixed | 0.482 | 0.396 | 0.211 | 0.611 | 0.583 | 1.09 | 0.882 | 0.994 | 1.09 | 0.993
E fixed | 0.947 | 0.547 | 0.174 | 0.772 | 0.512 | 1.09 | 1.1 | 1.04 | 1.18 | 0.873
F fixed | 1.06 | 1.19 | 1.65 | 1.19 | 1.47 | 0.882 | 0.738 | 0.932 | 0.878 | 0.868
G fixed | 0.696 | 0.581 | 0.722 | 1.09 | 1.1 | 0.835 | 1.2 | 1.2 | 1.36 | 1.31
H fixed | 1.07 | 0.954 | 1.67 | 1.13 | 0.93 | 1.21 | 1.07 | 1.09 | 0.888 | 0.99
I fixed | 1.33 | 0.963 | 1.57 | 0.865 | 0.776 | 1.11 | 0.797 | 0.727 | 0.827 | 0.878
K fixed | 0.501 | 1.3 | 0.858 | 1.27 | 1.3 | 0.592 | 1.01 | 0.968 | 1.04 | 1.08
L fixed | 1.37 | 1.41 | 1.49 | 0.918 | 0.831 | 1.33 | 0.872 | 0.863 | 0.995 | 0.882
M fixed | 1.36 | 1.17 | 1.33 | 1.07 | 0.873 | 0.975 | 0.733 | 0.828 | 0.855 | 0.922
N fixed | 0.551 | 1.04 | 0.581 | 0.88 | 0.981 | 1.29 | 1.1 | 1.2 | 0.935 | 1.05
P fixed | 0.446 | 0.904 | 0.532 | 0.972 | 1.64 | 1.45 | 1.29 | 1.23 | 1.19 | 1.24
Q fixed | 1.09 | 0.94 | 0.669 | 1.14 | 0.958 | 0.964 | 1.16 | 0.915 | 1.11 | 0.963
R fixed | 0.649 | 1.31 | 1.07 | 1.31 | 1.25 | 0.533 | 1.1 | 1.09 | 0.982 | 1.12
S fixed | 1.26 | 1.01 | 0.793 | 0.979 | 1.2 | 0.975 | 1.18 | 1.17 | 0.898 | 0.967
T fixed | 1.25 | 0.937 | 0.922 | 0.87 | 0.894 | 0.906 | 1.02 | 1.07 | 0.724 | 0.93
V fixed | 1.42 | 1.08 | 1.27 | 0.988 | 0.622 | 0.976 | 0.906 | 0.824 | 0.859 | 0.879
W fixed | 1.1 | 1.5 | 1.77 | 0.989 | 1.16 | 0.762 | 0.774 | 0.976 | 0.972 | 0.891
pThr fixed | 0.802 | 0.447 | 0.162 | 0.305 | 0.359 | 0.848 | 0.859 | 0.877 | 0.86 | 0.871
pTyr fixed | 1.06 | 0.646 | 0.306 | 0.529 | 0.409 | 1.74 | 1.03 | 1.15 | 1.09 | 0.896

SRC, construct: Full length, human (from UniProt P12931)
relative phosphorylation
Details | at +1 | at +2 | at +3 | at +4 | at +5 | at -1 | at -2 | at -3 | at -4 | at -5
A fixed | 1.71 | 1.04 | 0.531 | 0.882 | 1.03 | 0.537 | 1.09 | 0.87 | 1.12 | 1.01
D fixed | 0.651 | 0.589 | 0.472 | 0.783 | 0.787 | 0.691 | 1.57 | 1.93 | 1.48 | 1.36
E fixed | 1.43 | 1.36 | 0.454 | 0.876 | 0.704 | 0.984 | 1.82 | 2.66 | 1.68 | 1.23
F fixed | 0.696 | 1.21 | 3.63 | 1.19 | 1.24 | 0.688 | 0.649 | 0.959 | 1.2 | 1.03
G fixed | 3.59 | 0.728 | 0.679 | 1.29 | 1.06 | 0.492 | 1.2 | 0.937 | 1.15 | 1.16
H fixed | 0.667 | 0.556 | 0.874 | 0.983 | 0.891 | 0.504 | 0.917 | 0.842 | 0.875 | 0.871
I fixed | 0.83 | 1.39 | 2.12 | 0.89 | 0.817 | 4.34 | 0.76 | 0.663 | 0.902 | 0.826
K fixed | 0.229 | 0.535 | 0.369 | 0.982 | 1.06 | 0.229 | 0.522 | 0.462 | 0.566 | 0.758
L fixed | 0.605 | 0.987 | 1.36 | 0.876 | 1.05 | 1.6 | 0.878 | 0.694 | 0.954 | 0.899
M fixed | 1.09 | 1.09 | 0.913 | 1.19 | 0.87 | 0.764 | 0.657 | 0.765 | 0.91 | 0.901
N fixed | 0.456 | 0.648 | 0.407 | 0.737 | 0.725 | 0.294 | 1.17 | 1.18 | 0.793 | 1.09
P fixed | 0.274 | 0.7 | 0.453 | 0.931 | 1.49 | 1.11 | 1.26 | 0.814 | 1.17 | 1.21
Q fixed | 0.764 | 0.802 | 0.416 | 1.08 | 0.851 | 0.378 | 1.11 | 1.01 | 0.941 | 0.976
R fixed | 0.297 | 0.685 | 0.637 | 1.14 | 1.24 | 0.213 | 0.598 | 0.541 | 0.673 | 0.808
S fixed | 1.04 | 1.67 | 0.626 | 0.932 | 1.15 | 0.385 | 1.18 | 0.971 | 0.797 | 0.955
T fixed | 0.976 | 1.5 | 0.709 | 0.94 | 0.926 | 1.28 | 0.896 | 0.901 | 0.692 | 0.848
V fixed | 1.14 | 1.39 | 1.5 | 0.919 | 0.947 | 2.86 | 0.834 | 0.664 | 0.784 | 0.82
W fixed | 1.55 | 1.13 | 1.84 | 1.39 | 1.16 | 0.651 | 0.886 | 1.14 | 1.31 | 1.27
pThr fixed | 1.52 | 1.76 | 0.528 | 0.686 | 0.645 | 2.28 | 1.83 | 1.46 | 1.3 | 1.37
pTyr fixed | 3.88 | 2.03 | 0.798 | 1.32 | 0.829 | 1.27 | 1.55 | 1.66 | 1.97 | 1.46

SRMS, construct: aa221-486, human (from UniProt Q9H3Y6)
relative phosphorylation
Details | at +1 | at +2 | at +3 | at +4 | at +5 | at -1 | at -2 | at -3 | at -4 | at -5
A fixed | 1.61 | 0.852 | 0.745 | 0.969 | 1.04 | 0.678 | 1.08 | 0.923 | 1.13 | 1.02
D fixed | 1.27 | 1.37 | 0.647 | 1.09 | 1.1 | 0.76 | 1.3 | 1.33 | 1.22 | 1.14
E fixed | 2.77 | 1.87 | 0.602 | 1.41 | 1.23 | 0.764 | 1.61 | 1.88 | 1.18 | 1.07
F fixed | 0.567 | 0.976 | 1.42 | 0.922 | 0.996 | 1.49 | 0.718 | 1.05 | 1.1 | 1.01
G fixed | 0.832 | 0.583 | 0.964 | 1.15 | 1.18 | 0.296 | 1.01 | 1.07 | 1.08 | 1.18
H fixed | 0.66 | 0.783 | 0.837 | 1.11 | 0.897 | 1.13 | 0.924 | 0.961 | 0.842 | 0.87
I fixed | 1.26 | 1.07 | 2.19 | 0.812 | 0.864 | 2.65 | 0.963 | 0.778 | 0.816 | 0.921
K fixed | 0.273 | 0.451 | 0.291 | 0.736 | 0.714 | 0.317 | 0.605 | 0.62 | 0.767 | 0.91
L fixed | 0.788 | 1.07 | 1.56 | 0.795 | 0.92 | 1.98 | 0.921 | 0.839 | 1.03 | 0.919
M fixed | 1.12 | 1.01 | 1.31 | 1.13 | 1.02 | 1.2 | 0.837 | 1.03 | 0.991 | 0.995
N fixed | 0.539 | 1.17 | 0.534 | 0.818 | 0.958 | 0.564 | 1.08 | 1.26 | 0.945 | 1.08
P fixed | 0.16 | 0.742 | 1 | 1.27 | 1.59 | 0.546 | 1.22 | 0.923 | 1.23 | 1.21
Q fixed | 1.2 | 0.857 | 0.847 | 1.05 | 0.891 | 0.591 | 1.05 | 0.819 | 1.12 | 1.01
R fixed | 0.361 | 0.635 | 0.397 | 0.871 | 0.768 | 0.351 | 0.576 | 0.671 | 0.867 | 0.946
S fixed | 1.12 | 1.07 | 0.784 | 0.971 | 1 | 0.5 | 1.12 | 1.04 | 0.882 | 0.971
T fixed | 1.12 | 1.26 | 1.01 | 0.923 | 1 | 1.26 | 0.998 | 1.01 | 0.754 | 0.879
V fixed | 1.35 | 1.07 | 1.6 | 0.884 | 0.896 | 1.83 | 1.13 | 0.792 | 0.849 | 0.903
W fixed | 1.01 | 1.16 | 1.27 | 1.09 | 0.942 | 1.1 | 0.856 | 0.994 | 1.2 | 0.962
pThr fixed | 2.26 | 2.43 | 0.579 | 1.07 | 0.972 | 1.2 | 1.19 | 1.02 | 0.958 | 1.03
pTyr fixed | 2.12 | 3.06 | 1.02 | 1.47 | 1.07 | 1.38 | 1.44 | 1.51 | 1.27 | 1.21

Source: the supplement of paper PMC11136658
